Reference: doi:10.1101/2024.08.25.607996 (bioRxiv, 2024)

Target: the molecule itself
Test: cryo-EM structure

B1: feline APN ectodomain without the Fc fusion (dimer) (domain or fragment)
chain: DQSKPWNVYRLPKTLIPDSYNVTLRPYLTPNNKGLYVFTGTNIVRFTCKESTNIVIIHSKRLNYTSHQGHMVALSGVGGFHPQPVIVRTELVELTEYLVVHLQEPLVAGRQYEMNSEFQGELADDLAGFYRSEYMENGVKKVLATTHMQATEARKSFPCFDEPAMKATFNITIIHPNNLVALSNMLPRGPSVPFGEDPTWKVTEFETTPIMSTYLLAYIVSEFSYVETRAPSGVLIRIWARPSAINQGHGDYALKVTGPILDFFSQHYDTPYPLNKSDQIALPDFNAGAMENWGLVTYRESALLYDRQSSSSGNQERVVTVIAHELAHQWFGNLVTLEWWNDLWLNEGFASYVEYLGADFAEPTWNLKDLMVLNDVYRVMAVDALASSHPLSTPASEINTPAQISEVFDSISYSKGASVLRMLSNFLTEDLFKMGIASYLHTYKYGNTIYLNLWEHLQQVVDKQPTIKLPDTVSAIMDRWILQMGFPVITVDTQTGTISQQHFLLDPQSVVTRPSQFNYLWIVPISSVRSGSPQAHYWLPGVEKAQNDLFKTTANDWVLLNLNVTGYYLVNYDNENWKKIQTQLQTDLSVIPVINRAQVIHDAFNLASAQKVPVTLALNNTLFLIQETEYMPWQAALSSLSYFKLMFDRSEVYGPMKRYLKKQVTPLFNHFERVTKNWTDHPQTLMDQYSEINAVSTACSYGVPECEKLAATLFAQWKKNPQNNPIHPNLRSTVYCNAIAQGGEEEWNFVWEQFLKAELVNEADKLRGALACSNQVWILNRFLSYTLDPNLIRKQDVTSTLSSISSNVVGQTLVWDFVQSNWKKLFQDYGTGSFSFSNLIQAVTRRFSTEFELQQLEQFKKNNMDTGFGSATRALEQALEKTKANLKWVKENKDVVLRWFTENS
stoichiometry N: 2
